JP2000154149A (dated 2000)
Substitutions are numbered along the chain they refer to.

T1: ヒトFas抗原 on human lymphocyte cell line HPB-ALL (human, UniProt P25445 26-335)
T1 sequence (looked up): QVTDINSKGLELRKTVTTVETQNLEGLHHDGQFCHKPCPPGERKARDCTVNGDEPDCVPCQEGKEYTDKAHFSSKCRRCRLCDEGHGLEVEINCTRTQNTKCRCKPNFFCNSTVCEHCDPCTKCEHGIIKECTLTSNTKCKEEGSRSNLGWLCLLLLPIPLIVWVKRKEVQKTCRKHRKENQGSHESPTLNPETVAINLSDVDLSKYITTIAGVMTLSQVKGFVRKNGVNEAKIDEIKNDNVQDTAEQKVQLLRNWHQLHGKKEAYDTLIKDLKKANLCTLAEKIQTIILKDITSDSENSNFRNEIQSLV

B1: 抗ヒトFasヒト化抗体 [B] (expression product of pHμM1-1 and pHκKY2-58 in COS-7 cells; HμM heavy chain + VL-KY light chain) (antibody)
heavy: EVQLVQSGAEVKKPGASVKVSCKASGYTFTDYNMHWVKQAHGKSLEWMGYIYPYNGGTGYNQKFKSKATLTVDNSASTAYMELSSLRSEDTAVYYCARSYYAMDYWGQGTLVTVSSGSASAPTLFPLVSCENSPSDTSSVAVGCLAQDFLPDSITFSWKYKNNSDISSTRGFPSVLRGGKYAATSQVLLPSKDVMQGTDEHVVCKVQHPNGNKEKNVPLPVIAELPPKVSVFVPPRDGFFGNPRKSKLICQATGFSPRQIQVSWLREGKQVGSGVTTDQVQAEAKESGPTTYKVTSTLTIKESDWLSQSMFTCRVDHRGLTFQQNASSMCVPDQDTAIRVFAIPPSFASIFLTKSTKLTCLVTDLTTYDSVTISWTRQNGEAVKTHTNISESHPNATFSAVGEASICEDDWNSGERFTCTVTHTDLPSPLKQTISRPKGVALHRPDVYLLPPAREQLNLRESATITCLVTGFSPADVFVQWMQRGQPLSPEKYVTSAPMPEPQAPGRYFAHSILTVSEEEWNTGETYICVVAHEALPNRVTERTVDKSTGKPTLYNVSLVMSDTAGTCY
light: DVVMTQSPLSLPVTLGQPASISCRSSKSLVHSNGNTYLHWYLQKPGQSPKLLIYKVSNRFSGVPDRFSGSGSGTDFTLKISRVEAEDVGVYYCSQSTHVPPAFGQGTKVEIKRTVAAPSVFIFPPSDEQLKSGTASVVCLLNNFYPREAKVQWKVDNALQSGNSQESVTEQDSKDSTYSLSSTLTLSKADYEKHKVYACEVTHQGLSSPVTKSFNRGEC
B2: 抗ヒトFasヒト化抗体 [C] (expression product of pHμM1-1 and pHκKF2-19 in COS-7 cells; HμM heavy chain + VL-KF light chain) (antibody)
heavy: B1 heavy
light: B1 light with Y92F
B3: 抗ヒトFasヒト化抗体 [I] (expression product of pHμH5-1 and pHκRF2-52 in COS-7 cells; HμH heavy chain + VL-RF light chain) (antibody)
heavy: B1 heavy with K38R, H41P, K43Q, S44G
light: B1 light with K50R, Y92F
B4: 抗ヒトFasヒト化抗体 [D] (expression product of pHμM1-1 and pHκRY2-10 in COS-7 cells; HμM heavy chain + VL-RY light chain) (antibody)
heavy: B1 heavy
light: B1 light with K50R
B5: 抗ヒトFasヒト化抗体 [E] (expression product of pHμM1-1 and pHκRF2-52 in COS-7 cells; HμM heavy chain + VL-RF light chain) (antibody)
heavy: B1 heavy
light: B1 light with K50R, Y92F
B6: 抗ヒトFasヒト化抗体 [G] (expression product of pHμH5-1 and pHκKF2-19 in COS-7 cells; HμH heavy chain + VL-KF light chain) (antibody)
heavy: B1 heavy with K38R, H41P, K43Q, S44G
light: B1 light with Y92F
B7: マウス抗ヒトFas抗体CH11(MBL社) (antibody, mouse IgM)
heavy: EVQLQQSGPELVKPGASVKISCKASGYTFTDYNMHWVKQSHGKSLEWIGYIYPYNGGTGYNQKFKSKATLTVDNSSSTAYMELRSLTSEDSAVYYCARSYYAMDYWGQGTSVTVSSESQSFPNVFPLVSCESPLSDKNLVAMGCLARDFLPSTISFTWNYQNNTEVIQGIRTFPTLRTGGKYLATSQVLLSPKSILEGSDEYLVCKIHYGGKNRDLHVPIPAVAEMNPNVNVFVPPRDGFSGPAPRKSKLICEATNFTPKPITVSWLKDGKLVESGFTTDPVTIENKGSTPQTYKVISTLTISEIDWLNLNVYTCRVDHRGLTFLKNVSSTCAASPSTDILTFTIPPSFADIFLSKSANLTCLVSNLATYETLNISWASQSGEPLETKIKIMESHPNGTFSAKGVASVCVEDWNNRKEFVCTVTHRDLPSPQKKFISKPNEVHKHPPAVYLLPPAREQLNLRESATVTCLVKGFSPADISVQWLQRGQLLPQEKYVTSAPMPEPGAPGFYFTHSILTVTEEEWNSGETYTCVVGHEALPHLVTERTVDKSTGKPTLYNVSLIMSDTGGTCY
light: DVVMTQSPLSLPVSLGDQASISCRSSKSLVHSNGNTYLHWYLQKPGQSPKLLIYKVSNRFSGVPDRFSGSGSGTDFTLKISRVEAEDLGVYFCSQSTHVPPAFGGGTKLEIKRADAAPTVSIFPPSSEQLTSGGASVVCFLNNFYPKDINVKWKIDGSERQNGVLNSWTDQDSKDSTYSMSSTLTLTKDEYERHNSYTCEATHKTSTSPIVKSFNRNEC
chain: DDEATILADNKCMCTRVTSRIIPSTEDPNEDIVERNIRIVVPLNNRENISDPTSPLRRNFVYHLSDVCKKCDPVEVELEDQVVTATQSNICNEDDGVPETCYMYDRNKCYTTMVPLRYHGETKMVQAALTPDSCYPD

Target: T1, ヒトFas抗原 on human lymphocyte cell line …
Assay: cell-based or functional assay

Binder | ED 50 (IgM concentration at which HPB-ALL cell survival is 50%), 細胞障害活性 [ng/mL]
B1 | 1.1
B2 | 1
B3 | 3.4
B4 | 1.7
B5 | 1.5
B6 | 2.4
B7 | 10.7
